± gives the standard deviation of the averaged measurements.
Test: total protein half-life in vivo (active degradation + dilution); higher = more stable protein
[1] = E. coli NCM3722 delta-clpP delta-lon delta-hslV, growth: N-lim chemostat, doubling time 6 h
[2] = E. coli NCM3722 delta-clpP, growth: N-lim chemostat, doubling time 6 h
[3] = E. coli NCM3722 delta-lon, growth: N-lim chemostat, doubling time 6 h
[4] = E. coli NCM3722 delta-smpB, growth: N-lim chemostat, doubling time 6 h
[5] = wild type E. coli NCM3722, growth: C-lim chemostat, doubling time 6 h
[6] = wild type E. coli NCM3722, growth: C-lim chemostat, doubling time 12 h
[7] = wild type E. coli NCM3722, growth: N-lim chemostat, doubling time 12 h
[8] = wild type E. coli NCM3722, growth: P-lim chemostat, doubling time 6 h
[9] = wild type E. coli NCM3722, growth: P-lim chemostat, doubling time 12 h
[10] = E. coli NCM3722 delta-hslV, growth: N-lim chemostat, doubling time 6 h
[11] = wild type E. coli NCM3722, growth: C-lim chemostat, doubling time 3 h
[12] = wild type E. coli NCM3722, growth: N-lim chemostat, doubling time 6 h

Sequence	total protein half-life in vivo [1] [h]	total protein half-life in vivo [2] [h]	total protein half-life in vivo [3] [h]	total protein half-life in vivo [4] [h]	total protein half-life in vivo [5] [h]	total protein half-life in vivo [6] [h]	total protein half-life in vivo [7] [h]	total protein half-life in vivo [8] [h]	total protein half-life in vivo [9] [h]	total protein half-life in vivo [10] [h]	total protein half-life in vivo [11] [h]	total protein half-life in vivo [12] [h]
MEDLNVVDSINGAGSWLVANQALLLSYAVNIVAALAIIIVGLIIARMISNAVNRLMISRKIDATVADFLSALVRYGIIAFTLIAALGRVGVQTASVIAVLGAAGLAVGLALQGSLSNLAAGVLLVMFRPFRAGEYVDLGGVAGTVLSVQIFSTTMRTADGKIIVIPNGKIIAGNIINFSREPVRRNEFIIGVAYDSDIDQVKQILTNIIQSEDRILKDREMTVRLNELGASSINFVVRVWSNSGDLQNVYWDVLERIKREFDAAGISFPYPQMDVNFKRVKEDKAA [P0C0S1]	6.89 ± 0.37	7.53 ± 0.59	6.91 ± 1.2	5.91 ± 0.16	6.24 ± 0.12	12.81 ± 0.023	12.7 ± 0.82	6.423 ± 0.022	13.2 ± 0.67	–	–	–
MTVTRPRAERGAFPPGTEHYGRSLLGAPLIWFPAPAASRESGLILAGTHGDENSSVVTLSCALRTLTPSLRRHHVVLCVNPDGCQLGLRANANGVDLNRNFPAANWKEGETVYRWNSAAEERDVVLLTGDKPGSEPETQALCQLIHRIQPAWVVSFHDPLACIEDPRHSELGEWLAQAFELPLVTSVGYETPGSFGSWCADLNLHCITAEFPPISSDEASEKYLFAMANLLRWHPKDAIRPS [P0ACV6]	4.35 ± 0.052	4.17 ± 0.28	4.19 ± 0.46	3.94 ± 0.21	4.71 ± 0.84	9.23 ± 0.26	6.85 ± 0.2	4.71 ± 0.42	10.7 ± 0.85	3.78 ± 0.16	3.03 ± 0.27	3.66 ± 0.29
MSQVQSGILPEHCRAAIWIEANVKGEVDALRAASKTFADKLATFEAKFPDAHLGAVVAFGNNTWRALSGGVGAEELKDFPGYGKGLAPTTQFDVLIHILSLRHDVNFSVAQAAMEAFGDCIEVKEEIHGFRWVEERDLSGFVDGTENPAGEETRREVAVIKDGVDAGGSYVFVQRWEHNLKQLNRMSVHDQEMVIGRTKEANEEIDGDERPETSHLTRVDLKEDGKGLKIVRQSLPYGTASGTHGLYFCAYCARLHNIEQQLLSMFGDTDGKRDAMLRFTKPVTGGYYFAPSLDKLMAL	3.34 ± 0.63	3.25 ± 0.84	3.73 ± 0.79	3.14 ± 0.27	–	8.52 ± 2.9	4.17 ± 0.094	5.09 ± 0.12	9.66 ± 0.84	3.36 ± 0.15	2.96 ± 0.12	3.18 ± 0.17
MHRILAEKSVNITELRKNPAKYFIDQPVAVLSNNRPAGYLLSASAFEALMDMLAEQEEKKPIKARFRPSAARLEEITRRAEQYLNDMTDDDFNDFKE	6.12 ± 0.86	3.91	–	–	–	–	–	–	4.58	–	–	–
MFKFLVLTLGIISCQAYAEDTVIVNDHDISAIKDCWQKNSDDDTDVNVIKSCLRQEYNLVDAQLNKAYGEAYRYIEQVPRTGVKKPDTEQLNLLKKSQRAWLDFRDKECELILSNEDVQDLSDPYSESEWLSCMIIQTNTRTRQLQLYRNSEDFYPSPLTRG	–	–	–	–	–	–	–	–	–	6.44	–	–
MLVSCAMRLHSGVFPDYAEKLPQEEKMEKEDSFPQRVWQIVAAIPEGYVTTYGDVAKLAGSPRAARQVGGVLKRLPEGSTLPWHRVVNRHGTISLTGPDLQRQRQALLAEGVMVSGSGQIDLQRYRWNY [P0AFP2]	5.49 ± 0.093	–	–	–	4.04	3.96	–	–	–	–	–	–
MKLFAQGTSLDLSHPHVMGILNVTPDSFSDGGTHNSLIDAVKHANLMINAGATIIDVGGESTRPGAAEVSVEEELQRVIPVVEAIAQRFEVWISVDTSKPEVIRESAKVGAHIINDIRSLSEPGALEAAAETGLPVCLMHMQGNPKTMQEAPKYDDVFAEVNRYFIEQIARCEQAGIAKEKLLLDPGFGFGKNLSHNYSLLARLAEFHHFNLPLLVGMSRKSMIGQLLNVGPSERLSGSLACAVIAAMQGAHIIRVHDVKETVEAMRVVEATLSAKENKRYE [P0AC13]	4.15 ± 0.55	3.78 ± 0.098	4.16 ± 0.19	3.72 ± 0.14	4.48 ± 0.86	–	6.23 ± 0.25	5.63 ± 0.14	11.3 ± 0.29	4.96 ± 1.8	2.881 ± 0.016	3.94 ± 0.15
MKNWKTLLLGIAMIANTSFAAPQVVDKVAAVVNNGVVLESDVDGLMQSVKLNAAQARQQLPDDATLRHQIMERLIMDQIILQMGQKMGVKISDEQLDQAIANIAKQNNMTLDQMRSRLAYDGLNYNTYRNQIRKEMIISEVRNNEVRRRITILPQEVESLAQQVGNQNDASTELNLSHILIPLPENPTSDQVNEAESQARAIVDQARNGADFGKLAIAHSADQQALNGGQMGWGRIQELPGIFAQALSTAKKGDIVGPIRSGVGFHILKVNDLRGESKNISVTEVHARHILLKPSPIMTDEQARVKLEQIAADIKSGKTTFAAAAKEFSQDPGSANQGGDLGWATPDIFDPAFRDALTRLNKGQMSAPVHSSFGWHLIELLDTRNVDKTDAAQKDRAYRMLMNRKFSEEAASWMQEQRASAYVKILSN [P0ABZ6]	5.66 ± 0.16	6.39 ± 1.2	6.49 ± 0.28	5.7 ± 0.35	6.4 ± 0.42	11.7 ± 0.87	13.1 ± 0.99	5.78 ± 0.24	11.7 ± 0.52	6.52 ± 0.36	2.97 ± 0.098	6.23 ± 0.57

Source: the supplement of paper PMC11246515
